Literature values in PMC293425.

Biological target: relaxin receptor LGR7 (Homo sapiens) (UniProt Q9HBX9)
Chain of UniProt Q9HBX9 (Q9HBX9 whole entry): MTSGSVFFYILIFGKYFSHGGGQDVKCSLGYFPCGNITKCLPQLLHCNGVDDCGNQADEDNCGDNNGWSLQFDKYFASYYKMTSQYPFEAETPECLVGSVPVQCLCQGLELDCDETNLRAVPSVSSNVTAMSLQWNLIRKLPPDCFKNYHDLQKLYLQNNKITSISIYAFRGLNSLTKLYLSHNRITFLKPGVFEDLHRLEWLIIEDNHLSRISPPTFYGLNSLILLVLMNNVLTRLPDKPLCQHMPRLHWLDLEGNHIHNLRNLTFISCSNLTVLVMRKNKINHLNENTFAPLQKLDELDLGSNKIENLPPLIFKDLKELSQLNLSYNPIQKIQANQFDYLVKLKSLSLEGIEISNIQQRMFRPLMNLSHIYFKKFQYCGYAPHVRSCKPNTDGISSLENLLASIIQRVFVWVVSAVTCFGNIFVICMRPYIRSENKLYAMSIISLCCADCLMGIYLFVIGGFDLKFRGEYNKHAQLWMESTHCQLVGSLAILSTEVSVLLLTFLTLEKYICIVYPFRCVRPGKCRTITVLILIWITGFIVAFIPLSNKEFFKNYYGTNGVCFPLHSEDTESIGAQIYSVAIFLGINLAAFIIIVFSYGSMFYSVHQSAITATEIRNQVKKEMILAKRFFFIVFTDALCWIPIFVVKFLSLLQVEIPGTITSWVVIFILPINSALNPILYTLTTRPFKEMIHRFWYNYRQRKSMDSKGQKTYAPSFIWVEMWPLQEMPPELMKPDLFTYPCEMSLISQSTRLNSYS

Chain of relaxin (P04090 162-185): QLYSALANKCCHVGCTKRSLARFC

Kd: 1 nM
Substance: relaxin (from UniProt P04090)
